Publication PMC8960973, “Pretransition state and apo structures of the filament-forming enzyme SgrAI elucidate mechanisms of activation and substrate specificity” (The Journal of Biological Chemistry, 2022)

T1: SgrAI restriction endonuclease (UniProt Q9F6L0 1-339)
T1 sequence: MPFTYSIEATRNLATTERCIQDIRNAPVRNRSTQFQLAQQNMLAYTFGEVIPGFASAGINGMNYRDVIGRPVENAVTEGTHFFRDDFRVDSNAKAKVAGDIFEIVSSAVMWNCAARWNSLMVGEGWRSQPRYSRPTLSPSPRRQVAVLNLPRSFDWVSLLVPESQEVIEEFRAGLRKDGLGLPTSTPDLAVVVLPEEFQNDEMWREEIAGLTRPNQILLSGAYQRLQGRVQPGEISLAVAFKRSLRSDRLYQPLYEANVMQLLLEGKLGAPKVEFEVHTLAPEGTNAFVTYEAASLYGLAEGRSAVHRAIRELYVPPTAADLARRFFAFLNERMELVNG

B1: SgrAI type II restriction endonuclease, wildtype (enzyme)
chain: T1 sequence
notes: homodimer of 74 kDa; in the crystal it is DNA-free with Ca2+; also called SgrAI dimer; source: E. coli BL21 (DE3), purified (Talon resin, heparin FF, Superdex-200 SEC)
B2: 40-1 (40 bp primary site DNA) (dsDNA)
DNA 1: GATGCGTGGGTCTTCACACCGGTGGATGCGTGGGTCTTCA
DNA 2: TGAAGACCCACGCATCCACCGGTGTGAAGACCCACGCATC

Key:
[1] = biological target: the molecule itself; assay: crystal structure; DNA-free (apo) SgrAI with Ca2+; hanging drop, 5% PEG 4000, 0.1 M imidazole pH 6.5, 0.1 M NaCl, 5 mM Ca(OAc)2, 17 °C; two chains per asymmetric unit forming the dimer
[2] = biological target: the molecule itself; assay: cryo-EM structure; run-on oligomeric filaments of SgrAI dimers bound to 40 bp primary site DNA (CACCGGTG, intact scissile phosphate); 4.9 uM SgrAI, 41 uM dsDNA, 10 mM Ca2+, room temperature 1 h; helical symmetry rise 21.2 A, twist -85.8 deg
[3] = biological target: T1, SgrAI restriction endonuclease; assay: cryo-EM structure (2.7 A); Ca2+ (sites A and B), filamentous, intact scissile phosphate; EM sample buffer not given in the material; Ca2+ in place of Mg2+; SgrAI stored after SEC in 25 mM Tris-HCl pH 8, 150 mM NaCl, 1 mM DTT; details: protein: recombinant; chain copies: 2; blunt

Binder | stoichiometry N [1] [chains per dimer] | stoichiometry N [2] | binding result [3]
B1 | 2 | < 10 DBDs (DNA-bound SgrAI dimers) per filament | 
B2 |  |  | binds
